Reference: paper PMC4266991

Molecular target: SUFU (UniProt Q9UMX1)
Assay: co-immunoprecipitation, immunoblot
Settings: reference: wild-type GLI2, CCL21; sites S149

GLI2 (from UniProt P10070) GLI2 S149A, CCL21
binding against the reference: stronger
